Experiments:
[1] = target: T1, lysozyme from chicken egg white (chicken, UniProt P00698); experiment: ELISA; antigen coated on MaxiSorp plates (5 ug/mL, carbonate buffer pH 9.6); antibody fragments purified from culture supernatant by cobalt-based immunoprecipitation, serially diluted; detection by anti-6x-His-tag antibody, OD450; room temperature; conditions: both partners purified
T1 construct: lysozyme C from chicken egg white; source: bought: Sigma-Aldrich

[2] = target: T2, lysozyme from chicken egg white (Lyz, with C-FLAG-tag) (chicken, UniProt P00698); experiment: pull-down; Nan-His6 from culture supernatant held on cobalt-based Dynabeads and washed; supernatant with Lyz-FLAG (concentrated eight times) added in pull-down buffer (sodium phosphate pH 7.4, NaCl, Tween-20), 4 C, 30 min; imidazole elution; SDS-PAGE and anti-FLAG western blot; conditions: one partner purified
T2 construct: lysozyme from chicken egg white, synthesised codon-optimised gene with an alpha-factor leader; band of 15 kDa; probably the mature lysozyme behind the leader; A spacer EEGEPK may stand at the N-terminus; source: S. cerevisiae, secreted with alpha-factor leader; culture supernatant concentrated eight times; not shown: FLAG, C-terminal, kept
T2 sequence (P00698 19-147): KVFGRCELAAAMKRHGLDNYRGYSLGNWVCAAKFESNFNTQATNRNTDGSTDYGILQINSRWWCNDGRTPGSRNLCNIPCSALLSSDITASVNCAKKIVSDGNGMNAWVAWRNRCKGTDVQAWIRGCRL

T1 sequence (P00698 19-147): as above

B1: Nanobody (Nan, Camelid), single V-type domain against lysozyme (VHH)
VHH: DVQLQASGGGSVQAGGSLRLSCAASGYTIGPYCMGWFRQAPGKEREGVAAINMGGGITYYADSVKGRFTISQDNAKNTVYLLMNSLEPEDTAIYYCAADSTIYASYYECGHGLSTGGYGYDSWGQGTQVTVSS
notes: camelid VhH against lysozyme, 17 kDa; also called VhH; source: S. cerevisiae HA (also LA, MA), secreted with alpha-factor leader; used as culture supernatant and purified from it by cobalt-based immunoprecipitation; not shown: His6, C-terminal, kept
B1: binds [1]; binds [2].

— article PMC8278646 (Microbial Cell Factories, 2021)
